The values below come from patent US20180016306A1.

Assay [1] concerns the target aRSV-Fab (Fab fragment of anti-RSV monoclonal IgG Palivizumab, Synagis). The assay can be described thus: SPR (Biacore 3000), aRSV-Fab on CM5 chip, peptide flowed, 25 C, pH 7.4, 1:1 fit.
Assay [2] shares this target. The assay can be described thus: affinity chromatography, peptide on aRSV-Fab-immobilised column, linear pH gradient 5.5 to 2.5, pH at elution peak top.
Assay [3] has the same target. The assay can be described thus: affinity chromatography, peptide on aRSV-Fab-immobilised column, linear pH gradient, pH at elution peak top.
Assay [4] has the same target. The assay can be described thus: affinity chromatography, aRSV-Fab on LB5t-T16H.4d-immobilised cellulose carrier, linear pH gradient 5.0 to 2.4, pH at elution peak top.

Changes are numbered by the printed parent chain. Names may count otherwise.

B1: LB5t-T16D.1d (designed binder)
chain: GPLGSEQVTIKENIYFEDGTVQDATFKGTFAEATAEAYRYADLLSKEHGKYTADLEDGGYTINIRFAG
In assay [1], B1 came in with a Ka of 1.44e+07 M⁻¹, a koff of 0.0265 s⁻¹ and a kon of 381000 M⁻¹ s⁻¹. This molecule also had a Dissociation pH in assay [2] of 3.6 pH.

B2: LB5t-T16L.1d (designed binder)
chain: B1 chain with D23L
B2 registered a Dissociation pH in assay [3] of 3.65 pH.

B3: LB5t-T16H.1d (designed binder)
chain: B1 chain with D23H
In assay [1], B3 gave a Ka of 2.69e+07 M⁻¹, a koff of 0.0159 s⁻¹ and a kon of 428000 M⁻¹ s⁻¹. Moreover, the Dissociation pH in assay [2] was found to be 3.9 pH.

B4: LB5t-T18D.1d (designed binder)
chain: B1 chain with D23T, T25D
Take B4: in assay [1], the Ka came out at 6.79e+06 M⁻¹, the koff turned out to be 0.0467 s⁻¹ and the association rate constant (kon) was found to be 317000 M⁻¹ s⁻¹. This molecule returned a Dissociation pH in assay [2] of 3.85 pH.

B5: LB5t-T18H.1d (designed binder)
chain: B1 chain with D23T, T25H
As to B5, in assay [1], the Ka came out at 1.17e+07 M⁻¹, the koff turned out to be 0.036 s⁻¹ and the on-rate constant (kon) came to 422000 M⁻¹ s⁻¹. Also, the Dissociation pH in assay [2] amounted to 3.9 pH.

B6: LB5t-A17H.1d (designed binder)
chain: B1 chain with D23T, A24H
In assay [1], B6 registered a Ka of 1.08e+06 M⁻¹, a koff of 0.0738 s⁻¹ and an on-rate constant (kon) of 80000 M⁻¹ s⁻¹. Besides, in assay [2], the Dissociation pH is 3.9 pH.

B7: LB5t-Q15H.1d (designed binder)
chain: B1 chain with Q22H, D23T
With B7, in assay [1], the Ka was found to be 6.7e+06 M⁻¹, the koff was determined as 0.0485 s⁻¹ and the kon is 325000 M⁻¹ s⁻¹. The molecule further yielded a Dissociation pH in assay [2] of 3.9 pH.

B8: LB5t-T18Q.1d (designed binder)
chain: B1 chain with D23T, T25Q
In assay [1], B8 returned a Ka of 1.26e+07 M⁻¹, an off-rate constant (koff) of 0.0296 s⁻¹ and a kon of 373000 M⁻¹ s⁻¹. In assay [2], the Dissociation pH stood at 3.65 pH.

B9: LB5t-T16A.1d (designed binder)
chain: B1 chain with D23A
In the case of B9, in assay [1], the Ka worked out at 1.87e+07 M⁻¹, the dissociation rate constant (koff) turned out to be 0.0225 s⁻¹ and the kon was found to be 421000 M⁻¹ s⁻¹. In assay [2], this molecule came in with a Dissociation pH of 3.6 pH.

B10: LB5t-T16H.4d (designed binder)
chain: KEETPETPETDSEEQVTIKENIYFEDGTVQHATFKGTFAEATAEAYRYADLLSKEHGKYTADLEDGGYTINIRFAGKEKTPEEPKEQVTIKENIYFEDGTVQHATFKGTFAEATAEAYRYADLLSKEHGKYTADLEDGGYTINIRFAGKEKTPEEPKEQVTIKENIYFEDGTVQHATFKGTFAEATAEAYRYADLLSKEHGKYTADLEDGGYTINIRFAGKEKTPEEPKEQVTIKENIYFEDGTVQHATFKGTFAEATAEAYRYADLLSKEHGKYTADLEDGGYTINIRFAGKKVDEKPEEC
For the molecule B10, the Elution pH in assay [4] came out at 3.66 pH.

B11: LB1t-Wild.1d (protein)
chain: VTIKANLIFANGSTQTAEFKGTFEKATSEAYAYADTLKKDNGEYTVDVADKGYTLNIKFA
As for B11, the Dissociation pH in assay [3] turned out to be 2.7 pH.

B12: LB1t-E18D.1d (designed binder)
chain: B11 chain with E18D
Turning to B12, the Dissociation pH in assay [3] was 2.95 pH.

As usually defined, the koff is the first-order rate constant of dissociation. Read a high koff as a short-lived complex. The kon is the second-order rate constant of association. Higher therefore signals faster complex formation.
